Measured values published in IntAct's records for PubMed 25910212.

B1: Phytanoyl-CoA dioxygenase, peroxisomal (Homo sapiens), O14832 (parent)
chain: MEQLRAAARLQIVLGHLGRPSAGAVVAHPTSGTISSASFHPQQFQYTLDNNVLTLEQRKFYEENGFLVIKNLVPDADIQRFRNEFEKICRKEVKPLGLTVMRDVTISKSEYAPSEKMITKVQDFQEDKELFRYCTLPEILKYVECFTGPNIMAMHTMLINKPPDSGKKTSRHPLHQDLHYFPFRPSDLIVCAWTAMEHISRNNGCLVVLPGTHKGSLKPHDYPKWEGGVNKMFHGIQDYEENKARVHLVMEKGDTVFFHPLLIHGSGQNKTQGFRKAISCHFASADCHYIDVKGTSQENIEKEVVGIAHKFFGAENSVNLKDIWMFRARLVKGERTNL
B2: DNA repair protein XRCC4 (Homo sapiens), Q13426 (parent)
chain: MERKISRIHLVSEPSITHFLQVSWEKTLESGFVITLTDGHSAWTGTVSESEISQEADDMAMEKGKYVGELRKALLSGAGPADVYTFNFSKESCYFFFEKNLKDVSFRLGSFNLEKVENPAEVIRELICYCLDTIAENQAKNEHLQKENERLLRDWNDVQGRFEKCVSAKEALETDLYKRFILVLNEKKTKIRSLHNKLLNAAQEREKDIKQEGETAICSEMTADRDPVYDESTDEESENQTDLSGLASAAVSKDDSIISSLDVTDIAPSRKRRQRMQRNLGTEPKMAPQENQLQEKENSRPDSSLPETSKKEHISAENMSLETLRNSSPEDLFDEI
B3: Emerin (Homo sapiens), P50402 (parent)
chain: MDNYADLSDTELTTLLRRYNIPHGPVVGSTRRLYEKKIFEYETQRRRLSPPSSSAASSYSFSDLNSTRGDADMYDLPKKEDALLYQSKGYNDDYYEESYFTTRTYGEPESAGPSRAVRQSVTSFPDADAFHHQVHDDDLLSSSEEECKDRERPMYGRDSAYQSITHYRPVSASRSSLDLSYYPTSSSTSFMSSSSSSSSWLTRRAIRPENRAPGAGLGQDRQVPLWGQLLLFLVFVIVLFFIYHFMQAEEGNPF
partner: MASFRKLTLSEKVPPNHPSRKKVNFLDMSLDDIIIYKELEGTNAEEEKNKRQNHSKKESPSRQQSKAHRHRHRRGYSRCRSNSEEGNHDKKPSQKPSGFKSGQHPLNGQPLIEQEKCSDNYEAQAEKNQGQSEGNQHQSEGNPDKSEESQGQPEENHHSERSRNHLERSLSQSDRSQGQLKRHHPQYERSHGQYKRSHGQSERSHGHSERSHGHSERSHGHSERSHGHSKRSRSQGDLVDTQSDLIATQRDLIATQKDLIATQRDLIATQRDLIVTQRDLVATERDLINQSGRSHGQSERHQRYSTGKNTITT
B4: U4/U6 small nuclear ribonucleoprotein Prp31 (Homo sapiens), Q8WWY3 (parent)
chain: MSLADELLADLEEAAEEEEGGSYGEEEEEPAIEDVQEETQLDLSGDSVKTIAKLWDSKMFAEIMMKIEEYISKQAKASEVMGPVEAAPEYRVIVDANNLTVEIENELNIIHKFIRDKYSKRFPELESLVPNALDYIRTVKELGNSLDKCKNNENLQQILTNATIMVVSVTASTTQGQQLSEEELERLEEACDMALELNASKHRIYEYVESRMSFIAPNLSIIIGASTAAKIMGVAGGLTNLSKMPACNIMLLGAQRKTLSGFSSTSVLPHTGYIYHSDIVQSLPPDLRRKAARLVAAKCTLAARVDSFHESTEGKVGYELKDEIERKFDKWQEPPPVKQVKPLPAPLDGQRKKRGGRRYRKMKERLGLTEIRKQANRMSFGEIEEDAYQEDLGFSLGHLGKSGSGRVRQTQVNEATKARISKTLQRTLQKQSVVYGGKSTIRDRSSGTASSVAFTPLQGLEIVNPQAAEKKVAEANQKYFSSMAEFLKVKGEKSGLMST
partner: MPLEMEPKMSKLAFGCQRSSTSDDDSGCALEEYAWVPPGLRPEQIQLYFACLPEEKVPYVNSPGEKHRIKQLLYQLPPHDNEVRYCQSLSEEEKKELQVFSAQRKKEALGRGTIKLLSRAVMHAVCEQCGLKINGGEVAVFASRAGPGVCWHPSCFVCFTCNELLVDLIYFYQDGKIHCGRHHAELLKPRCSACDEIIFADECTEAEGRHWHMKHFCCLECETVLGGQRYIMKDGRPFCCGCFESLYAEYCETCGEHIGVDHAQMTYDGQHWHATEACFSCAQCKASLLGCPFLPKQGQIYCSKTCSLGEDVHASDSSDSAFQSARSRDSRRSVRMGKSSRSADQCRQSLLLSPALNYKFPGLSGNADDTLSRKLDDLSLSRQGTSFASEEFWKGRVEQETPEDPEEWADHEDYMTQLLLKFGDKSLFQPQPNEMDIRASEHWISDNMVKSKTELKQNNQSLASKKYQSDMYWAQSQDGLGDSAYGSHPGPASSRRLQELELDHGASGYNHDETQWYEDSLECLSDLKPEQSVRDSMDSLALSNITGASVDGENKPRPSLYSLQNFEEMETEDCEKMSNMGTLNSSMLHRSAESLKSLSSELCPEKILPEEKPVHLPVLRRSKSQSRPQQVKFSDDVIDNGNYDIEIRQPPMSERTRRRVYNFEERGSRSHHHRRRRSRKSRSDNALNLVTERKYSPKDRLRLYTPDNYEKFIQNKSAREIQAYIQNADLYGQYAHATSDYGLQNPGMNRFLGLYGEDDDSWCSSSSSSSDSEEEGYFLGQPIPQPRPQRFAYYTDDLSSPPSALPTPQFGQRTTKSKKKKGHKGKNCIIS
B5: NADH dehydrogenase [ubiquinone] 1 alpha subcomplex assembly factor 4 (Homo sapiens), Q9P032 (parent)
chain: MGALVIRGIRNFNLENRAEREISKMKPSVAPRHPSTNSLLREQISLYPEVKGEIARKDEKLLSFLKDVYVDSKDPVSSLQVKAAETCQEPKEFRLPKDHHFDMINIKSIPKGKISIVEALTLLNNHKLFPETWTAEKIMQEYQLEQKDVNSLLKYFVTFEVEIFPPEDKKAIRSK
B6: Sialidase-2 (Homo sapiens), Q9Y3R4 (parent)
chain: MASLPVLQKESVFQSGAHAYRIPALLYLPGQQSLLAFAEQRASKKDEHAELIVLRRGDYDAPTHQVQWQAQEVVAQARLDGHRSMNPCPLYDAQTGTLFLFFIAIPGQVTEQQQLQTRANVTRLCQVTSTDHGRTWSSPRDLTDAAIGPAYREWSTFAVGPGHCLQLHDRARSLVVPAYAYRKLHPIQRPIPSAFCFLSHDHGRTWARGHFVAQDTLECQVAEVETGEQRVVTLNARSHLRARVQAQSTNDGLDFQESQLVKKLVEPPPQGCQGSVISFPSPRSGPGSPAQWLLYTHPTHSWQRADLGAYLNPRPPAPEAWSEPVLLAKGSCAYSDLQSMGTGPDGSPLFGCLYEANDYEEIVFLMFTLKQAFPAEYLPQ

Variants of: B1
Conditions: with fam9b_human FAM9B

Question: MEQLRAAARLQIVLGHLGRPSAGAVVAHSTSGTISSASFHPQQFQYTLDNNVLTLEQRKFYEENGFLVIKNLVPDADIQRFRNEFEKICRKEVKPLGLTVMRDVTISKSEYAPSEKMITKVQDFQEDKELFRYCTLPEILKYVECFTGPNIMAMHTMLINKPPDSGKKTSRHPLHQDLHYFPFRPSDLIVCAWTAMEHISRNNGCLVVLPGTHKGSLKPHDYPKWEGGVNKMFHGIQDYEENKARVHLVMEKGDTVFFHPLLIHGSGQNKTQGFRKAISCHFASADCHYIDVKGTSQENIEKEVVGIAHKFFGAENSVNLKDIWMFRARLVKGERTNL [P29S] was tested. Which “effect of a mutation on the interaction” value did it give?
Answer: with no effect

Question: For MEQLRAAARLQIVLGHLGRPSAGAVVAHPTSGTISSASFHPQQFQYTLDNNVLTLEQRKFYEENGFLVIKNLVPDADIQRFRNEFEKICRKEVKPLGLTVMRDVTISKSEYAPSEKMITKVQDFQEDKELFRYCTLPEILKYVECFTGPNIMAMHTMLINKPPDSGKKTSRHPLHQDLHYFPFRPSDLIVCAWTAMEHISRNNGCLVVLPGTHKGSLKPHDYPKWEGGVNKMFHGIQDYEENKARVHLVMEKGDTVFFHPLLIHGSGQHKTQGFRKAISCHFASADCHYIDVKGTSQENIEKEVVGIAHKFFGAENSVNLKDIWMFRARLVKGERTNL [N269H], which “effect of a mutation on the interaction” value is on record?
Answer: with no effect

Question: For MEQLRAAARLQIVLGHLGRPSAGAVVAHPTSGTISSASFHPQQFQYTLDNNVLTLEQRKFYEENGFLVIKNLVPDADIQRFRNEFEKICRKEVKPLGLTVMRDVTISKSEYAPSEKMITKVQDFQEDKELFRYCTLPEILKYVECFTGPNIMAMHTMLINKPPDSGKKTSRHPLHQDLHYFPFRPSDLIVCAWTAMEHFSRNNGCLVVLPGTHKGSLKPHDYPKWEGGVNKMFHGIQDYEENKARVHLVMEKGDTVFFHPLLIHGSGQNKTQGFRKAISCHFASADCHYIDVKGTSQENIEKEVVGIAHKFFGAENSVNLKDIWMFRARLVKGERTNL [I199F], which “effect of a mutation on the interaction” value is on record?
Answer: disrupting interaction strength

Question: With MEQLRAAARLQIVLGHLGRPSAGAVVAHPTSGTISSASFHPQQFQYTLDNNVLTLEQRKFYEENGFLVIKNLVPDADIQRFRYEFEKICRKEVKPLGLTVMRDVTISKSEYAPSEKMITKVQDFQEDKELFRYCTLPEILKYVECFTGPNIMAMHTMLINKPPDSGKKTSRHPLHQDLHYFPFRPSDLIVCAWTAMEHISRNNGCLVVLPGTHKGSLKPHDYPKWEGGVNKMFHGIQDYEENKARVHLVMEKGDTVFFHPLLIHGSGQNKTQGFRKAISCHFASADCHYIDVKGTSQENIEKEVVGIAHKFFGAENSVNLKDIWMFRARLVKGERTNL [N83Y] as the variant, how does the “effect of a mutation on the interaction” value read?
Answer: disrupting interaction strength

Variants of: B2
Conditions: with XRCC4, Q13426-3

Question: Which “effect of a mutation on the interaction” value does the source give for I134T here?
Answer: with no effect

Variants of: B3
Conditions: with luzp4_human LUZP4, Q9P127

Question: With MDNYADLSDTELTTLLRRYNIPHGPVVGSTRRLYEKKIFEYETQRRRLSPPSSFAASSYSFSDLNSTRGDADMYDLPKKEDALLYQSKGYNDDYYEESYFTTRTYGEPESAGPSRAVRQSVTSFPDADAFHHQVHDDDLLSSSEEECKDRERPMYGRDSAYQSITHYRPVSASRSSLDLSYYPTSSSTSFMSSSSSSSSWLTRRAIRPENRAPGAGLGQDRQVPLWGQLLLFLVFVIVLFFIYHFMQAEEGNPF [S54F] as the variant, how does the “effect of a mutation on the interaction” value read?
Answer: with no effect

Question: Which “effect of a mutation on the interaction” value does the source give for MDNYADLSDTELTTLLRRYNIPHGPVVGSTRRLYEKKIFEYETQRRRLSPPSSSAASSYSFSDLNSTRGDADMYDLPKKEDALLYQSKGYNDDYYEESYFTTRTYGEPESAGPSRAVRQSVTSFPDADAFHHQVHDDDLLSSSEEECKDRERPMYGRDSAYQSITHYRPVSASRSSLDLSYYHTSSSTSFMSSSSSSSSWLTRRAIRPENRAPGAGLGQDRQVPLWGQLLLFLVFVIVLFFIYHFMQAEEGNPF [P183H] here?
Answer: with no effect

Question: How did the “effect of a mutation on the interaction” value turn out when MDNYADLSDTELTTLLRRYNIPHGPVVGSTRRLYEKKIFEYETQRRRLSPPSSSAASSYSFSDLNSTRGDADMYDLPKKEDALLYQSKGYNDDYYEESYFTTRTYGEPESAGPSRAVRQSVTSFPDADAFHHQVHDDDLLSSSEEECKDRERPMYGRDSAYQSITHYRPVSASRSSLDLSYYTTSSSTSFMSSSSSSSSWLTRRAIRPENRAPGAGLGQDRQVPLWGQLLLFLVFVIVLFFIYHFMQAEEGNPF [P183T] was run?
Answer: with no effect

Question: MDNYADLSDTELTTLLRRYNIPHGPVVGSTRRLYEKKIFEYETQRRRLSPPSSSAASSYSFSDLNSTRGDAVMYDLPKKEDALLYQSKGYNDDYYEESYFTTRTYGEPESAGPSRAVRQSVTSFPDADAFHHQVHDDDLLSSSEEECKDRERPMYGRDSAYQSITHYRPVSASRSSLDLSYYPTSSSTSFMSSSSSSSSWLTRRAIRPENRAPGAGLGQDRQVPLWGQLLLFLVFVIVLFFIYHFMQAEEGNPF [D72V] was tested. Which “effect of a mutation on the interaction” value did it give?
Answer: with no effect

Variants of: B4
Conditions: with pric1_human PRICKLE1, Q96MT3

Question: MSLADELLADLEEAAEEEEGGSYGEEEEEPAIEDVQEETQLDLSGDSVKTIAKLWDSKMFAEIMMKIEEYISKQAKASEVMGPVEAAPEYRVIVDANNLTVEIENEVNIIHKFIRDKYSKRFPELESLVPNALDYIRTVKELGNSLDKCKNNENLQQILTNATIMVVSVTASTTQGQQLSEEELERLEEACDMALELNASKHRIYEYVESRMSFIAPNLSIIIGASTAAKIMGVAGGLTNLSKMPACNIMLLGAQRKTLSGFSSTSVLPHTGYIYHSDIVQSLPPDLRRKAARLVAAKCTLAARVDSFHESTEGKVGYELKDEIERKFDKWQEPPPVKQVKPLPAPLDGQRKKRGGRRYRKMKERLGLTEIRKQANRMSFGEIEEDAYQEDLGFSLGHLGKSGSGRVRQTQVNEATKARISKTLQRTLQKQSVVYGGKSTIRDRSSGTASSVAFTPLQGLEIVNPQAAEKKVAEANQKYFSSMAEFLKVKGEKSGLMST [L107V] was tested. Which “effect of a mutation on the interaction” value did it give?
Answer: with no effect

Variants of: B5
Conditions: with NDUFAF3, Q9BU61-2
Sequence of NDUFAF3, Q9BU61-2 (Q9BU61 58-184): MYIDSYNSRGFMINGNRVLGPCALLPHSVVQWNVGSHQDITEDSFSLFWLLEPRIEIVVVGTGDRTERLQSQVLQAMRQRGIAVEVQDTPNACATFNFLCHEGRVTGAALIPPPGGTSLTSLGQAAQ

Question: Which “effect of a mutation on the interaction” value does the source give for MGALVIRGIRNFNLENRAEREISKMKPSVAPRHPSTNSLLREQISLYPEVKGEIARKDEKLLSFPKDVYVDSKDPVSSLQVKAAETCQEPKEFRLPKDHHFDMINIKSIPKGKISIVEALTLLNNHKLFPETWTAEKIMQEYQLEQKDVNSLLKYFVTFEVEIFPPEDKKAIRSK [L65P] here?
Answer: with no effect

Variants of: B6
Conditions: with nt2na_human NOTCH2NLA

Question: For R41Q, which “effect of a mutation on the interaction” value is on record?
Answer: with no effect
